Reference: the RNAGym collection of RNA variant scans (doi:10.1021/acssynbio.7b00057)

B1: Pistol ribozyme (parent)
chain: GGGUCGUUGUUCCAUAAUCGCGUGGAUAUGGCACGCAAGUUUCUACCGGGCACCGUAAAUGUCCGACUGGAGCCGUUCGGGCGGCUAUAAACAGACCUCAGGCCCGAAGCGUGGCGGCACCUGCCGCCGGUGGUAAAAAAGAUCGGAAGAGCACACGUCU

Variants of: B1
Assay: aptazyme ON/OFF ratio, guanine; higher = stronger switching; co-transcriptional cleavage with and without guanine

Variant	aptazyme ON/OFF ratio
U7C G9U U10C U11G	1.18
U7C G9U C12U C13A	1.12
U7C G9U C12U C13G	1.1
U7C G9U C12U C13U	1.12
U7C G9U U10G C13G	1.06
U7C G9U U10G C13U	1.37
U7C G9U U10G C13A	1.25
U7C G9U U10A C12A C13G	1.14
U7C G9U U10A C12A C13U	1.36
U7C G9U U10A C12A C13A	1.37
U7C G9U U10G U11C C12U C13G	1.05
U7C G9U U10G U11C C12U C13U	1.19
U7C G9U U10G U11C C12U C13A	1.19
U7C G9U U10C U11C C13A	1
U7C G9U U10C U11C C13U	1
U7C G9U U10C U11C C13G	1.06
U7C G9U U10G C12A C13U	1.24
U7C G9U U10G C12A C13G	1.13
U7C G9U U10G C12A C13A	1.09
U7C G9U U10C U11G C13A	1.24
U7C G9U U10C U11G C13U	1.23

Variant	aptazyme ON/OFF ratio
U7C G9U U10C U11G C13G	1.04
U7C G9U U10G U11G C12G C13A	1.13
U7C G9U U10G U11G C12G C13U	1.08
U7C G9U U10G U11G C12G C13G	1.12
U7C G9C U11C C13A	1.02
U7C G9C U11C C13U	1
U7C G9C U11C C13G	1.02
U7C G9U U10C U11G C12U	1.22
U7C G9U U10C U11G C12G	1.1
U7C G9U U10C U11G C12A	1.09
U7C G9U U11A C12U C13A	1.32
U7C G9U U11A C12U C13U	1.2
U7C G9U U11A C12U C13G	1.14
U7C G9C U11G C12A C13U	1.07
U7C G9C U11G C12A C13A	1.05
U7C G9C U11G C12A C13G	1.06
U7C G9C U10G U11G C13G	1.11
U7C G9C U10G U11G C13A	1.1
U7C G9C U10G U11G C13U	1.09
U7C U8A	3.27
U7C G9U U11C C12G	1.08

Variant	aptazyme ON/OFF ratio
U7C G9U U11C C12A	1.26
U7C G9U U11C C12U	1.16
U7C G9U U10A U11G C12A	1.08
U7C G9U U10A U11G C12G	1.19
U7C G9U U10A U11G C12U	1.3
U7C G9U U10G U11C C13U	1.07
U7C G9U U10G U11C C13A	1.28
U7C G9U U10G U11C C13G	1.06
U7C G9U U10G U11G C12U C13A	1.07
U7C G9U U10G U11G C12U C13U	1.11
U7C G9U U10G U11G C12U C13G	1.13
U7C G9C U11G	1.06
U7C G9C U11A	1.03
U7C G9C U11C	1.03
U7C G9U U10A U11C C12G C13A	1.16
U7C G9U U10A U11C C12G C13U	1.15
U7C G9U U10A U11C C12G C13G	1.19
U7C U8A C12U C13A	1.17
U7C U8A C12U C13U	1.32
U7C U8A C12U C13G	1.28
U7C G9U U10C	2.79

Variant	aptazyme ON/OFF ratio
U7C G9U U10A	1.32
U7C G9U U10G	1.38
U7C G9U U10C U11C C12A C13U	1.01
U7C G9U U10C U11C C12A C13A	1.04
U7C G9U U10C U11C C12A C13G	1.08
U7C G9U U10C U11C C12G C13A	1.03
U7C G9U U10C U11C C12G C13G	1.03
U7C G9U U10C U11C C12G C13U	1.02
U7C G9U U11G C12U C13U	1.3
U7C G9U U11G C12U C13G	1.11
U7C G9U U11G C12U C13A	1.17
U7C G9C U11G C13G	1.03
U7C G9C U11G C13U	1.06
U7C G9C U11G C13A	1.03
U7C G9C U11C C12A C13A	1.02
U7C G9C U11C C12A C13U	1.05
U7C G9C U11C C12A C13G	1.02
U7C G9U U11A C12G C13U	1.14
U7C G9U U11A C12G C13A	1.2
U7C G9U U11A C12G C13G	1.24
